Substitutions are numbered along the chain they refer to.
B1: Affilin variation SPC7-E9 (designed binder)
chain: MGFICFLEDRAFQGRSYACDTDCPNLQPYFSRCNSISVLSGCWMIYERPNYQGHQYFLRRGEYPDYQQWMGLSDSIRSCCLIPPHSGAYRMKIYDRDELRGQMSELTDDCLSVQDRFHLTEIHSLNVLEGSWILYEMPNYRGRQYLLRPGEYRRFLDWGAPNAKVGSLRRVMDLYLEHHHHHH
notes: Directed against proNGF; also called SPCJ-E9 (including His6)
B2: Affilin variation SPC1-A1 (designed binder)
chain: MGFIWFMEDRAFQGRRYDCGTDCPNLQPYFSRCNSIKVKSGCWMIYERPNYQGHRHQYFLRRGEYPDYQQWMGLSDSIRSCCLIPPHSGAYRMKIYDRDELRGQMSELTDDCLSVQDRFHLTEIHSLNVLEGSWILYEMPNYRGRQYLLRPGEYRRFLDWGAPNAKVGSLRRVMDLYA
notes: Selected from the human gamma-II-crystallin library CR20
B3: Affilin variation SPC1-A7 (designed binder)
chain: B2 chain with F3L, W5C, M7S, D18M, G20L, K37N, K39W
notes: Selected from library CR20; has a free cysteine in variable position 4; not shown: C-terminal tag of six histidines 'already present'
B4: Affilin variation SPC1-G3 (designed binder)
chain: B2 chain with F3S, W5I, M7L, R16I, D18G, G20T, K37V, K39Q
notes: Selected from library CR20
B5: human wildtype gamma-II-crystallin (other, UniProt P07316 1-175, looked up)
chain: MGKITFYEDRAFQGRSYECTTDCPNLQPYFSRCNSIRVESGCWMIYERPNYQGHQYFLRRGEYPDYQQWMGLSDSIRSCCLIPPHSGAYRMKIYDRDELRGQMSELTDDCISVQDRFHLTEIHSLNVLEGSWILYEMPNYRGRQYLLRPGEYRRFLDWGAPNAKVGSLRRVMDLY
notes: also called human wildtype gamma-crystallin

Key:
proNGF [1] = test: concentration-dependent ELISA, proNGF coated, apparent KD
Method: FIG. 3: Concentration-dependent ELISA for the detection of the binding of SPC7-E9 to proNGF. The microtiter plate was coated with 10 μg/mi of proNGF. As the detection antibody served an anti-human gamma-II-crystallin antibody-POD conjugate in a dilution of 1:1000. The absorption values presented are mean values of two parallel measurements.

proNGF [2] = test: SPR (BIACORE), SPC7-E9 coupled through amino groups to a CM5 chip, proNGF as analyte
Method: FIG. 9: Sensorgrams of the Biacore experiments for the binding of SPC7-E9 to a CM5 chip with proNGF. 280 RU of […] were immobilized and different concentrations of proNGF passed over the chip. As the running buffer served HBS-EP with a flow rate of 30 μl/min.
2.) Furthermore, SPC7-E9 could be coupled unspecifically via surface-exposed amino groups (lysines) by means of NHS/EDC to the carboxyl groups of the BIACORE dextrane matrix in the following manner: The CM5 chip was activated for 7 min with NHS/EDC, and afterwards purified SPC7-E9 (in 20 mM Na phosphate buffer, pH 6.0) was passed over the chip for further 7 min. After the coupling was carried out the remaining reactive groups were deactivated for 7 min with 1 M ethanolamine (pH 8.5). For the analysis of dissociation constants the target proNGF was passed over the chip in different concentrations, the binding was monitored online (FIG. 9), and the curves were subsequently evaluated with the BiaEvaluation Software. […] After kinetic measurements the chip was regenerated with 0.1 glycin (pH 2.2), 10 mM HCl, 10 mM NaOh, 6 M Gua/HCl, 6 M urea and 20% ethanol. In this way, the binding activity of the Affilin™ chip was unchanged even after several regeneration cycles

human IgG Fc = biological target: T1, human IgG Fc (human); test: SPR (BIACORE), IgG Fc immobilised on a CM5 chip, Affilin as analyte
T1 construct: domain: Fc; The ELISAs used human monoclonal IgG Fc (Roche); Kept as one molecule; also called human monoclonal IgG Fc portion (Roche); polyclonal IgG Fc
Method: In BIACORE experiments the dissociation constants of the three Affilin™ variations were determined. For this purpose, approx. 180 RU of human IgG Fc (50 μg/ml in 50 mM Na citrate, pH 5.0) was immobilized on a CM5 chip. Free binding sites were finally inactivated by 1 M ethanolamin (pH 8.5).
Then, at a flow of 30 μl/min, 6 different concentrations (166 nM-1 μM) were passed over the chip for 180 sec. Afterwards, at the same flow the chip was rinsed with HBS, 0.005% Surfactant P20 (Biacore) for 180 sec. From the resulting sensorgrams using the BiaEvaluation Software (Biacore, Uppsala, Sweden) the following dissociation constants of the Affilin™ variations to IgG Fc could be determined: SPC1-A1 with 230 nM, SPC1-A7 with 280 nM and SPC1-G3 with 800 nM. In competition experiments the specific binding of the Affilin™ variations to IgG Fc and not to the chip matrix could be detected (FIG. 2).

BSA = biological target: T2, BSA (bovine, UniProt P02769 25-607); test: concentration-dependent ELISA, detection with anti-gamma-II-crystallin antibody-POD
T2 construct: Control antigen
Method: The binding properties of the purified proteins were now tested as described above in a concentration-dependent ELISA. For this purpose, different concentrations (100 nM-10 μM) of the Affilin™ variations were employed and an anti-gamma-II-crystallin antibody (monoclonal antibody conjugate with POD) was employed as the detection antibody.

T2 sequence (P02769 25-607 limits assumed): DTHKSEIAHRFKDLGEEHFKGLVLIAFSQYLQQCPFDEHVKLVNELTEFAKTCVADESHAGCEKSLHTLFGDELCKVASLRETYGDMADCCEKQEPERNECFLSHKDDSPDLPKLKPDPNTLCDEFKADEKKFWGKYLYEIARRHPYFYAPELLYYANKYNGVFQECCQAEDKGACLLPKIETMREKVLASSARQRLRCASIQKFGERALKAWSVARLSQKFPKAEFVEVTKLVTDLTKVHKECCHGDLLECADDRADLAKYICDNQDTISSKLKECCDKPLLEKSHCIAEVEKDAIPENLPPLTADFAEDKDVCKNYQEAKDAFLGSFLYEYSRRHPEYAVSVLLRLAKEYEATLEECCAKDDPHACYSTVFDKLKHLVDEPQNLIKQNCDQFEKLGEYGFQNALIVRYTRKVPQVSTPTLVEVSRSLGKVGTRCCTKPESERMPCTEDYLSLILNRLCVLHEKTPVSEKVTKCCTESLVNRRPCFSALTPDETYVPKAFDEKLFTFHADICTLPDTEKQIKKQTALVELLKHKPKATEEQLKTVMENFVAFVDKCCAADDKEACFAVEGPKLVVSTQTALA
Chain of proNGF (P01138 19-241): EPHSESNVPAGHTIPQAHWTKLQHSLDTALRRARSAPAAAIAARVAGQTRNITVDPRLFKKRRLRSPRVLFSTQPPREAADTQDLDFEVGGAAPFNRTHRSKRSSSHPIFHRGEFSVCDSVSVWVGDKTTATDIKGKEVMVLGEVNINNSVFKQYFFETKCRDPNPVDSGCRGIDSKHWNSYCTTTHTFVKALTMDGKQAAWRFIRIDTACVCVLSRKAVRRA

| Binder | Kd (proNGF [1]) | Kd (proNGF [2]) | Kd (human IgG Fc) | binding result (BSA) |
| --- | --- | --- | --- | --- |
| B1 | 200 nM | 1.4 nM | – | – |
| B2 | – | – | 230 nM | no binding (tested: 100 nM-10 µM) |
| B3 | – | – | 280 nM | no binding (tested: 100 nM-10 µM) |
| B4 | – | – | 800 nM | no binding (tested: 100 nM-10 µM) |
| B5 | – | – | – | no binding |
